Data: patent US10300024B2, “Proteinoid compounds, process of preparing same and uses thereof” (Bar-Ilan University, priority 2015, dated 2019)

Key:
[1] = Photostability under xenon lamp illumination; format: physicochemical; conditions: continuous illumination, 20 min
Description: An aqueous solution of ICG ([…]) in PBS was prepared, and the fluorescence intensity with λex set at 780 nm and λem set at 800 nm was measured. A dispersion of NIR fluorescent P(EF-PLLA) nanoparticles in PBS was prepared, and diluted to give a similar fluorescence intensity to the dye at the same wavelengths. The excitation and emission slits were opened to 20 nm and 5 nm, respectively. Each of the samples was illuminated continuously with a xenon lamp, and the fluorescence intensity was measured over a period of 20 min by a Cary Eclipse fluorescence spectrophotometer (Agilent Technologies Inc.). Intensity values were normalized for comparison.

[2] = cited from earlier work
[3] = system: HCT116 human colon cancer cells; experiment: XTT cell viability, HCT116; format: cell-based
Description: HCT116 human colon cancer cells were treated with 0.01 mg/mL NPs, hollow or containing 1.66 μg Dox, non-conjugated and conjugated to 35 ng TRAIL. Free Dox, free TRAIL and PBS served as control groups. Absorption was measured for all samples, each in six, with TECAN spectrophotometer to determine the cell viability. […] It was chosen to continue with the TRAIL-PEG-Dox NPs, as PEGylation modifies the physical and chemical properties of the drug, and can decrease immunogenicity and improve drug solubility.

In the case of `CC1(C)C(/C=C/C=C/C=C/C=C2\N(CCCCS(=O)(=O)O)c3ccc4ccccc4c3C2(C)C)=[N+](CCCCS(=O)(=O)[O-])c2ccc3ccccc3c21` [free ICG, indocyanine green], the “fluorescence intensity during illumination” value [1] is reported as “decreased significantly”.

In the case of `N[C@@H](Cc1c[nH]cn1)C(=O)O` [histidine], the “pKa of α-amine group” value [2] is listed as 9.33.

B1: PEG-TRAIL NPs: hollow NPs (without Dox) conjugated to TRAIL via PEG (conjugate, UniProt P50591 1-281, looked up)
Tumor necrosis factor ligand …: MAMMEVQGGPSLGQTCVLIVIFTVLLQSLCVAVTYVYFTNELKQMQDKYSKSGIACFLKEDDSYWDPNDEESMNSPCWQVKWQLRQLVRKMILRTSEETISTVQEKQQNISPLVRERGPQRVAAHITGTRGRSNTLSSPNSKNEKALGRKINSWESSRSGHSFLSNLHLRNGELVIHEKGFYYIYSQTYFRFQEEIKENTKNDKQMVQYIYKYTSYPDPILLMKSARNSCWSKDAEYGLYSIYQGGIFELKENDRIFVSVTNEHLIDMDHEASFFGAFLVG
modifications: PEG-linked to hollow nanoparticles
For B1, the toxic effect ([3]; 0.01 mg/mL NPs, 24 h and 72 h) was “did not have a toxic effect”.

B2: free TRAIL: TNF-related apoptosis-inducing ligand (protein, UniProt P50591 1-281, looked up)
Tumor necrosis factor ligand …: MAMMEVQGGPSLGQTCVLIVIFTVLLQSLCVAVTYVYFTNELKQMQDKYSKSGIACFLKEDDSYWDPNDEESMNSPCWQVKWQLRQLVRKMILRTSEETISTVQEKQQNISPLVRERGPQRVAAHITGTRGRSNTLSSPNSKNEKALGRKINSWESSRSGHSFLSNLHLRNGELVIHEKGFYYIYSQTYFRFQEEIKENTKNDKQMVQYIYKYTSYPDPILLMKSARNSCWSKDAEYGLYSIYQGGIFELKENDRIFVSVTNEHLIDMDHEASFFGAFLVG
With B2 the cell viability course ([3]; after 72 h) was “recovery in the cell viability” and the toxicity ([3]; over 24 h) was “good toxicity”.
